Assay results: US20230348568A1 (US Dept. of Health and Human Services, published 2023)

Tests used:
[1] = target: Epstein-Barr virus glycoprotein 42 (gp42) (Epstein-Barr virus) (UniProt P03205); experiment: cell-based or functional assay
[2] = target: EBV gH/gL/gp42 heterotrimer (recombinant protein) (Epstein-Barr virus) (UniProt P03231); experiment: BLI cross-competition; gH/gL/gp42 on the biosensor pre-saturated with primary mAb A10, then binding of this secondary mAb measured; high value = secondary blocked
[3] = target: EBV gH/gL/gp42 heterotrimer (recombinant protein) (Epstein-Barr virus) (UniProt P03231); experiment: BLI cross-competition; gH/gL/gp42 on the biosensor pre-saturated with primary mAb 4C12, then binding of this secondary mAb measured; high value = secondary blocked
[4] = target: EBV gH/gL/gp42 heterotrimer (recombinant protein) (Epstein-Barr virus) (UniProt P03231); experiment: BLI cross-competition; gH/gL/gp42 on the biosensor pre-saturated with primary mAb F2-1, then binding of this secondary mAb measured (self pair); high value = secondary blocked
[5] = target: T1, EBV gH/gL/gp42 heterotrimer (recombinant protein) (Epstein-Barr virus, UniProt P03231 19-679; P03212 23-137); experiment: BLI, gH/gL/gp42 on the biosensor, dilution series of Fab (legend box shows 5.00E-07), 300 s association, dissociation to 1200 s
T1 construct: Recombinant complex; also called gH/gL/gh42

[6] = target: T2, Epstein-Barr virus glycoprotein 42 (gp42) (Epstein-Barr virus, UniProt P03205 34-223, limits assumed); experiment: cell-based or functional assay
T2 sequence: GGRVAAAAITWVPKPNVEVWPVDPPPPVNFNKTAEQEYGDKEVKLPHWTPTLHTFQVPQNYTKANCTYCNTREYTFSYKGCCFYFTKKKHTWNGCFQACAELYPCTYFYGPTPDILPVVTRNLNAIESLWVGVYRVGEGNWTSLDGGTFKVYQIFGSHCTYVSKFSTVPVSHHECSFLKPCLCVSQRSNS

[7] = target: T2, Epstein-Barr virus glycoprotein 42 …; experiment: cell-based or functional assay; remark: listed apart in the source
[8] = target: T2, Epstein-Barr virus glycoprotein 42 …; experiment: cell-based or functional assay; remark: listed apart in the source
[9] = target: T1, EBV gH/gL/gp42 heterotrimer …; experiment: BLI (Octet RED96e), biotinylated gH/gL/gp42 on streptavidin biosensors, Fab dilution series, 1:1 global fit

F2-1 monoclonal antibody (previously described murine anti-gp42 antibody)
IC50 titer to block glycoprotein-mediated B cell fusion [1]: 111 µg/mL
IC50 titer to neutralize EBV infection in B cells [1]: 0.584 µg/mL
cross-competition (name or unit not given) [2]: 100
cross-competition (name or unit not given) [3]: 8.9
cross-competition (name or unit not given) [4]: 95.4

B1: 4C12 Fab (Fab, V domains shown)
VH: EVQLQQSGPELVKPGASVKISCKASGYTFTDYNMHWVKQSHGKNLEWIGFIYLYNGGTGYNQNFKSKATLTVDNSSSTAYMELRSLTSEDSAVFYCARDYYGNPYAMDYWGQGTSVTVSS
VL: DIQMTQTTSSLSASLGDRVTISCRASQDISNYLNWYQQKPDGTVKLLIYYTSRLRSGVPSRFSGSGSGTDYSLTINNLEQEDIATYFCQQGNTLPFTFGSGTKLEIK
notes: Fab of mAb 4C12; how the Fab was made is not described
Kd [5]: 57.9 nM

B2: A10 monoclonal antibody (cynomolgus monkey variable regions on human IgG1 constant region) (antibody, V domains shown)
VH: QVQLQESGPGLVKPSQTLSLTCAISGDSVSSNSATWNWIRQSPSRGLEWLGRTYYRSKWYYDYAQSVQNRISINPDTSKNQFSLQLNSVTPEDMAVYYCARGDFDAFDFWGQGLRVTVSS
VL: SYELTQPPSVSAASGQTARITCGGDNIGSKNVQWYQQKPAQAPVLVIYADSKRPSGVPERFSGSNSGNTATLTISGVEAGDEADYYCQVWDRSSNIFGVGTRLTVLG
effectiveness in blocking B cell fusion relative to F2-1 [6]: ~50 fold
neutralization potency relative to F2-1 [6]: ~14 fold
IC50 titer to neutralize EBV infection in B cells [7]: 0.0391 µg/mL
IC50 titer to block glycoprotein-mediated B cell fusion [8]: 2.41 µg/mL

B3: A10 Fab (Fab, V domains shown)
VH: QVQLQESGPGLVKPSQTLSLTCAISGDSVSSNSATWNWIRQSPSRGLEWLGRTYYRSKWYYDYAQSVQNRISINPDTSKNQFSLQLNSVTPEDMAVYYCARGDFDAFDFWGQGLRVTVSS
VL: SYELTQPPSVSAASGQTARITCGGDNIGSKNVQWYQQKPAQAPVLVIYADSKRPSGVPERFSGSNSGNTATLTISGVEAGDEADYYCQVWDRSSNIFGVGTRLTVLG
notes: Fab of A10
IC50 titer to block glycoprotein-mediated B cell fusion [8]: 1.73 µg/mL
Kd [9]: 0.149 nM
koff [9]: 0.000227 s⁻¹
kon [9]: 1.54e+06 M⁻¹ s⁻¹
